In publication PMC7948422, “Repurposing p97 inhibitors for chemical modulation of the bacterial ClpB–DnaK bichaperone system” (The Journal of Biological Chemistry, 2020):

Key:
[1] = target: FITC-casein; experiment: fluorescence polarisation; fluorescence anisotropy; ClpB E279Q/E678Q titrated into 100-nM FITC-casein with 5-mM ATP, without DBeQ; fit of a binding isotherm with a Hill number
[2] = target: FITC-casein; experiment: fluorescence polarisation; fluorescence anisotropy; ClpB E279Q/E678Q titrated into 100-nM FITC-casein with 5-mM ATP and 80-μM DBeQ; fit of a binding isotherm with a Hill number

Kd [1]: 77.3 nM | Kd [2]: 78.5 nM
Substance: ClpB E279Q/E678Q (from UniProt P63284 1-857) (enzyme)
